B1: RgDAAO (Rhodotorula toruloides) (protein)
chain: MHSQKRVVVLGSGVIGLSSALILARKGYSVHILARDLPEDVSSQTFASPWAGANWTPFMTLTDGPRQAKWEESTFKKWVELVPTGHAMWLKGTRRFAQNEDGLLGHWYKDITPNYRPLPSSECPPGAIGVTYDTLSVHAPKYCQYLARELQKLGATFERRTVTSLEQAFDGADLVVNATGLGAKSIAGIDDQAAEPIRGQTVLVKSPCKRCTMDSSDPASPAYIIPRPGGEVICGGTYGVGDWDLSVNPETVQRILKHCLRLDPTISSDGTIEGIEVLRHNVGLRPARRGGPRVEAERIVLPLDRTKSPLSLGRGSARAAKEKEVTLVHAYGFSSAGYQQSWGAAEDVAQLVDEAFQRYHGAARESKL
notes: synthetic gene, N-terminal His6 tag, expressed in E. coli, Ni-NTA purified

What was measured:
TtAT = molecular target: T1, TtAT (Thermus thermophilus, UniProt Q75WK2); experiment: PLP to PMP conversion, absorbance decrease at […] nm; type: biochemical; conditions: 50 mM HEPES-NaOH pH 8.0, 0.1 M KCl, 25 °C, 20 μM enzyme, no amine acceptor; racemate used as amine donor
T1 construct: gene TthHB5018_10190; C-terminal His6 tag, amplified from genomic DNA, plasmid pET20b-ttGlnAT, expressed in E. coli BL21(DE3), Ni-NTA purified
T1 sequence (Q75WK2 entry or part of it): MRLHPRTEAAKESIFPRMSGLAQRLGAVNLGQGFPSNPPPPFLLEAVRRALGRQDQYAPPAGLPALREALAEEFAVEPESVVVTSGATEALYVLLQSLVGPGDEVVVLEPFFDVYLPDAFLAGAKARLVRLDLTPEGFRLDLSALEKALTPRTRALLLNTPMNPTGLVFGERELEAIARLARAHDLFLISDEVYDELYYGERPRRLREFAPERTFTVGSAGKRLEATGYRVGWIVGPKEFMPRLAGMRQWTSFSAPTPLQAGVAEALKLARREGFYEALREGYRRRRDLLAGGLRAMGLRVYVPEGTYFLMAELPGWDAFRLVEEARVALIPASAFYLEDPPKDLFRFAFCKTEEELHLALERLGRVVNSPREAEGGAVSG

purified protein [1] = substrate: NC(Cc1cnc2c(O)cccc2c1)C(=O)O; experiment: purified protein; type: biochemical, Rhodotorula toruloides; conditions: 75 mM phosphate pH 8.5, 1 mM o-dianisidine, 1 U HRP, 25 °C, 119 nM enzyme, racemate used, value calibrated accordingly
purified protein [2] = substrate: NC(Cc1ccc(-c2ccccn2)nc1)C(=O)O; experiment: purified protein; type: biochemical, Rhodotorula toruloides; conditions: 75 mM phosphate pH 8.5, 1 mM o-dianisidine, 1 U HRP, 25 °C, 119 nM enzyme, racemate used, value calibrated accordingly
purified protein [3] = substrate: N[C@H](Cc1ccc2ccccc2c1)C(=O)O; experiment: purified protein; conditions: 75 mM phosphate pH 8.5, 1 mM o-dianisidine, 1 U HRP, 25 °C, 11.9 nM enzyme

Molecule | PLP to PMP conversion, absorbance decrease at 430 nm (TtAT) | Km (purified protein [1]) | kcat (purified protein [1]) | kcat/Km (purified protein [1]) | Km (purified protein [2]) | kcat (purified protein [2]) | kcat/Km (purified protein [2]) | Km (purified protein [3]) | kcat (purified protein [3]) | kcat/Km (purified protein [3])
NC(Cc1cnc2c(O)cccc2c1)C(=O)O (racemic) [HQA, L-HQA] | This result indicates that TtAT recognizes BPA and HQA as substrates | – | – | – | – | – | – | – | – | –
NC(Cc1ccc(-c2ccccn2)nc1)C(=O)O (racemic) [BPA, L-BPA] | This result indicates that TtAT recognizes BPA and HQA as substrates | – | – | – | – | – | – | – | – | –
B1 | – | 43 ± 9.4 µM | 2.067 ± 0.00667 s⁻¹ | 48300 M⁻¹ s⁻¹ | 87 ± 10 µM | 7.47 ± 0.333 s⁻¹ | 86700 M⁻¹ s⁻¹ | 52 ± 8.7 µM | 28.5 s⁻¹ | 550000 M⁻¹ s⁻¹
